Tests used:
L363 cells = assay: JNG assay, co-culture with L363 cells; assay type: cell-based; conditions: co-culture with L363
Description: Cellular supernatant is collected and assayed for the induction of cytokines (e.g., IL2).
JNG (Jurkat cells expressing EGFP under an NFAT promoter) were infected with lentiviral vectors encoding different single chain and multi-chain SARs by spinfection in the presence of 8 µg/ml of Polybrene® (Sigma, Catalog no. H9268). The Jurkat-NFAT-GFP cells are engineered in such a way that the IL-2 promoter, which carries NFAT binding sites, is cloned upstream of the GFP gene. These cells have been used to study signaling via TCR and CAR. The different SARs were stably expressed in Jurkat NFAT-GFP cells by lentiviral mediated gene transfer, followed by selection with puromycin or blasticidin. No drug selection was used in case the construct lacked an antibiotic resistance gene. The SAR-expressing Jurkat-NFAT-GFP cells were cocultured with the target cells at E:T ratio of approximately 1:2 for approximately 4 hours to 18 hours. When the interaction between SIRs and their target antigen results in activation of the NFAT pathway, GFP expression is induced. […] GFP expression was monitored by FACS analysis. The Jurkat-NFAT-GFP (parental) cells were used as control. The structure of different constructs can be determined based on their names. […] The sequence of the other constructs in the table can be similarly determined from their names and by referring to the different Tables of this disclosure that provide the names and SEQ ID NO of the different modules. Alternatively, the composition and modular architecture of the different SAR constructs can be determined from their sequences by bioinformatics tools, including using nucleic acid and amino acids homology searches. A SAR is considered positive in the assay in case the SAR expressing Jurkat-NFAT-GFP cells show greater % GFP positive cells when cultured with the target cell line as compared to parental Jurkat-NFAT-GFP cells. […] In general, the number +/-, +, 2+, 3+, 4+, 5+ refer to approximately 5%, 10%, 20%, 30%, 40% and 50% GFP positive cells. The % of GFP induction in the above assay is dependent not only the relative strength of the SAR but also, among other factors, on the relative level of expression of the SAR in the JNG cells and the relative level of expression of the target antigen in the target cell line. To control for the difference in gene transduction efficiency of the different SAR constructs, the experiment was conducted with JNG cells transduced with SAR constructs co-expressing a drug resistance gene (e.g., puromycin or PAC) followed by drug selection to generate a stable population of SAR-expressing cells. It is to be noted that the drug resistance gene (e.g., PAC) in the SAR constructs is optional and in vivo studies were conducted with SAR constructs lacking the PAC gene.

RAJI cells = assay: JNG assay, co-culture with RAJI cells; assay type: cell-based; conditions: JNG cells expressing construct, co-culture with Raji
Outline: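 Jurkat NFAT-GFP (JNG) cells stably transduced with SARs by lentivirus, with drug selection where the construct carried a resistance gene, then co-cultured with target cells at E:T ~1:2 for ~4–18 h. % GFP-positive cells measured by FACS against parental JNG; +/- to 5+ correspond to ~5–50% GFP-positive.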

B1: 21996 (protein)
chain: MALPVTALLLPLALLLHAARPQVQLVESGGGLVQPGGSLRLSCAASGFTFTNHAMSWVRQAPGKGLELVSSISGNGRTTYYADSVKGRFTISRDISKNTLDLQMNSLRAEDTAVYYCAKDGGETLVDSRGQGTLVTVSSLEDLKNVFPPEVAVFEPSEAEISHTQKATLVCLATGFYPDHVELSWWVNGKEVHSGVCTDPQPLKEQPALNDSRYCLSSRLRVSATFWQNPRNHFRCQVQFYGLSENDEWTQDRAKPVTQIVSAEAWGRADCGFTSESYQQGVLSATILYEILLGKATLYAVLVSALVLMAMVKRKDSRGRAKRSGSGATNFSLLKQAGDVEENPGPTSMDWIWRILFLVGAATGAHSFEVQLLESGGGLVQPGGSLRLSCAASGFIFSIYAMSWVRQAPGKGLEWVSGISGSGVNTYYAHSVKGRFIISRDNSRNTVYLQMNSLRADDTAVYHCANGKGWDGNTWYEDYRGQGTLVTVSSTRIQNPDPAVYQLRDSKSSDKSVCLFTDFDSQTNVSQSKDSDVYITDKCVLDMRSMDFKSNSAVAWSNKSDFACANAFNNSIIPEDTFFPSPESSCDVKLVEKSFETDTNLNFQNLSVIGFRILLLKVAGFNLLMTLRLWSSRAKRSGSGVKQTLNFDLLKLAGDVESNPGPSRGHMTEYKPTVRLATRDDVPRAVRTLAAAFADYPATRHTVDPDRHIERVTELQELFLTRVGLDIGKVWVADDGAAVAVWTTPESVEAGAVFAEIGPRMAELSGSRLAAQQQMEGLLAPHRPKEPAWFLATVGVSPDHQGKGLGSAVVLPGVEAAERAGVPAFLETSAPRNLPFYERLGFTVTADVEVPEGPRTWCMTRKPGA
NFAT-GFP ASSAY: L363 (L363 cells): L363 (+) (refer to approximately 5%, 10%, 20%, 30%, 40% and 50% GFP positive cells)

B2: 22214 (protein)
chain: MALPVTALLLPLALLLHAARPACPYINIYNAEPANPSEKNSPTQYAYGTGPQGIFGQPGYINEFDIQMTQSPSSLSASVGDRVTITCKASDHINNWLAWYQQKPGQAPKLLIYGATTLETGVPSRFSGSGSGTDYTLTISSLQPEDFATYYCQQSWNTPWTFGQGTKLEIKRLEDLKNVFPPEVAVFEPSKAEIAHTQKATLVCLATGFYPDHVELSWWVNGKEVHSGVCTDPQPLKEQPALNDSRYCLSSRLRVSATFWQNPRNHFRCQVQFYGLSENDEWTQDRAKPVTQIVSAEAWGRADCGITSASYHQGVLSATILYEILLGKATLYAVLVSALVLMAMVKRKDSRGRAKRSGSGATNFSLLKQAGDVEENPGPTSATMDWIWRILFLVGAATGAHSGPQVQLQESGGGLAQAGGSLRLSCAASGRTFSMGWFRQAPGKEREFVAAITYSGGSPYYASSVRGRFTISRDNAKNTVYLQMNSLKPEDTAVYYCAANPTYGSDWNAENWGQGTQVTVSSGSGGGGSGGGGSGGGGSFEQVQLQQPGAELVKPGASVKMSCKASGYAFSSYWINWMKQKPGQGLEWIGQIYPGDGDTNYNGKFKGRATLTADTSSSTAYMQLSSLTSEDSAVYFCARSITTVVGCAMDYWGQGTSVTVSSTRIQNPDPAVYQLRDSKSSDKSVCLFTDFDSQTNVSQSKDSDVYITDKCVLDMRSMDFKSNSAVAWSNKSDFACANAFNNSIIPEDTFFPSSDVPCDVKLVEKSFETDTNLNFQNLSVIGFRILLLKVAGFNLLMTLRLWSSRAKRSGSGVKQTLNFDLLKLAGDVESNPGPSRGHMTEYKPTVRLATRDDVPRAVRTLAAAFADYPATRHTVDPDRHIERVTELQELFLTRVGLDIGKVWVADDGAAVAVWTTPESVEAGAVFAEIGPRMAELSGSRLAAQQQMEGLLAPHRPKEPAWFLATVGVSPDHQGKGLGSAVVLPGVEAAERAGVPAFLETSAPRNLPFYERLGFTVTADVEVPEGPRTWCMTRKPGA
NFAT-GFP ASSAY: Raji (RAJI cells): Raji (+) (refer to approximately 5%, 10%, 20%, 30%, 40% and 50% GFP positive cells)

B3: 21994 (protein)
chain: MALPVTALLLPLALLLHAARPQVQLVESGGGLVQPGGSLRLSCAASGFTFTNHAMSWVRQAPGKGLELVSSISGNGRTTYYADSVKGRFTISRDISKNTLDLQMNSLRAEDTAVYYCAKDGGETLVDSRGQGTLVTVSSLEDLKNVFPPEVAVFEPSEAEISHTQKATLVCLATGFYPDHVELSWWVNGKEVHSGVCTDPQPLKEQPALNDSRYCLSSRLRVSATFWQNPRNHFRCQVQFYGLSENDEWTQDRAKPVTQIVSAEAWGRADCGFTSESYQQGVLSATILYEILLGKATLYAVLVSALVLMAMVKRKDSRGRAKRSGSGATNFSLLKQAGDVEENPGPTSMDWIWRILFLVGAATGAHSFEVQLLESGGGLVQPGGSLRLSCAASGFIFSSYAMSWVRQAPGKGQEWVSGVSGTGVNTYYADSVKGRFTISRDNSKNTLYLQMNSLRAEDTAVYYCASGKGWDSGSWYEDYRGQGTLVTVSSTRIQNPDPAVYQLRDSKSSDKSVCLFTDFDSQTNVSQSKDSDVYITDKCVLDMRSMDFKSNSAVAWSNKSDFACANAFNNSIIPEDTFFPSPESSCDVKLVEKSFETDTNLNFQNLSVIGFRILLLKVAGFNLLMTLRLWSSRAKRSGSGVKQTLNFDLLKLAGDVESNPGPSRGHMTEYKPTVRLATRDDVPRAVRTLAAAFADYPATRHTVDPDRHIERVTELQELFLTRVGLDIGKVWVADDGAAVAVWTTPESVEAGAVFAEIGPRMAELSGSRLAAQQQMEGLLAPHRPKEPAWFLATVGVSPDHQGKGLGSAVVLPGVEAAERAGVPAFLETSAPRNLPFYERLGFTVTADVEVPEGPRTWCMTRKPGA
NFAT-GFP ASSAY: L363 (L363 cells): L363 (+) (refer to approximately 5%, 10%, 20%, 30%, 40% and 50% GFP positive cells)

B4: 21998 (protein)
chain: MDWIWRILFLVGAATGAHSQLQLQESGPGLVKPSETLSLTCTVSGGSVSSSSYYWGWIRQPPGKRLELIGSIYYGGSTYFNPSLKTRVTISVDTSKNQFSLKLSSVTAADTAVYYCAGGDTYGPVGQWPSDYRGQGTLVTVSSLEDLKNVFPPEVAVFEPSEAEISHTQKATLVCLATGFYPDHVELSWWVNGKEVHSGVCTDPQPLKEQPALNDSRYCLSSRLRVSATFWQNPRNHFRCQVQFYGLSENDEWTQDRAKPVTQIVSAEAWGRADCGFTSESYQQGVLSATILYEILLGKATLYAVLVSALVLMAMVKRKDSRGRAKRSGSGATNFSLLKQAGDVEENPGPTSMDWIWRILFLVGAATGAHSFEQVQLVESGGGLVQPGGSLRLSCAASGFTFTNHAMSWVRQAPGKGLELVSSISGNGRTTYYADSVKGRFTISRDISKNTLDLQMNSLRAEDTAVYYCAKDGGETLVDSRGQGTLVTVSSTRIQNPDPAVYQLRDSKSSDKSVCLFTDFDSQTNVSQSKDSDVYITDKCVLDMRSMDFKSNSAVAWSNKSDFACANAFNNSIIPEDTFFPSPESSCDVKLVEKSFETDTNLNFQNLSVIGFRILLLKVAGFNLLMTLRLWSSRAKRSGSGVKQTLNFDLLKLAGDVESNPGPSRGHMTEYKPTVRLATRDDVPRAVRTLAAAFADYPATRHTVDPDRHIERVTELQELFLTRVGLDIGKVWVADDGAAVAVWTTPESVEAGAVFAEIGPRMAELSGSRLAAQQQMEGLLAPHRPKEPAWFLATVGVSPDHQGKGLGSAVVLPGVEAAERAGVPAFLETSAPRNLPFYERLGFTVTADVEVPEGPRTWCMTRKPGA
NFAT-GFP ASSAY: L363 (L363 cells): L363 (+) (refer to approximately 5%, 10%, 20%, 30%, 40% and 50% GFP positive cells)

B5: 22009 (protein)
chain: MALPVTALLLPLALLLHAARPLEGKPIPNPLLGLDSTGSGEDLKNVFPPEVAVFEPSKAEIAHTQKATLVCLATGFYPDHVELSWWVNGKEVHSGVCTDPQPLKEQPALNDSRYCLSSRLRVSATFWQNPRNHFRCQVQFYGLSENDEWTQDRAKPVTQIVSAEAWGRADCGITSASYHQGVLSATILYEILLGKATLYAVLVSALVLMAMVKRKDSRGRAKRSGSGATNFSLLKQAGDVEENPGPTSTMDWIWRILFLVGAATGAHSQLQLQESGPGLVKPSETLSLTCTVSGGSVSSSSYYWGWIRQPPGKRLELIGSIYYGGSTYFNPSLKSRVTISVDTSKNQFSLKLSSVTAADTAVYYCAGGDTYGPVGQWPSDYRGQGTLVTVSSGGGGSGGGSFEVQLLESGGGLVQPGGSLRLSCAASGFIFSIYAMSWVRQAPGKGLEWVSGISGSGVNTYYADSVKGRFIISRDNSRNTVYLQMNSLRADDTAVYHCANGKGWDGNTWYEDYRGQGTLVTVSSTREQKLISEEDGSGIQNPDPAVYQLRDSKSSDKSVCLFTDFDSQTNVSQSKDSDVYITDKCVLDMRSMDFKSNSAVAWSNKSDFACANAFNNSIIPEDTFFPSSDVPCDVKLVEKSFETDTNLNFQNLSVIGFRILLLKVAGFNLLMTLRLWSSRAKRSGSGVKQTLNFDLLKLAGDVESNPGPSRGHMTEYKPTVRLATRDDVPRAVRTLAAAFADYPATRHTVDPDRHIERVTELQELFLTRVGLDIGKVWVADDGAAVAVWTTPESVEAGAVFAEIGPRMAELSGSRLAAQQQMEGLLAPHRPKEPAWFLATVGVSPDHQGKGLGSAVVLPGVEAAERAGVPAFLETSAPRNLPFYERLGFTVTADVEVPEGPRTWCMTRKPGA
NFAT-GFP ASSAY: L363 (L363 cells): L363 (+/-) (refer to approximately 5%, 10%, 20%, 30%, 40% and 50% GFP positive cells)
